The values that follow are results of earlier work, collected in publication PMC2903477.

In the series the target is TrkB (Homo sapiens) (UniProt Q16620).
Chain of UniProt Q16620 (Q16620 32-430): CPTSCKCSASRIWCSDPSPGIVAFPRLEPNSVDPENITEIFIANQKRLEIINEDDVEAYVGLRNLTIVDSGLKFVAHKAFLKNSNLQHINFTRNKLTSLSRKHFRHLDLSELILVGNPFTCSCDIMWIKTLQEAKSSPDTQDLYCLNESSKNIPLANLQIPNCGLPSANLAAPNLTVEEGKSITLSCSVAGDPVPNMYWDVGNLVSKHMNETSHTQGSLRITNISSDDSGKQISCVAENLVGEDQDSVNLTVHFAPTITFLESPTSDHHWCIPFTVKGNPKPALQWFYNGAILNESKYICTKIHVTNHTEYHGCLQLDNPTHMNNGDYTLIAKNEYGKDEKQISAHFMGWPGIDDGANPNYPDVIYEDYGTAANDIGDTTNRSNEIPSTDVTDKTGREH

BDNF (from UniProt P23560): the Kd is 0.1 nM.
